The results in this text go back to publication doi:10.1101/2020.01.12.903617, “The peptide sensor motif stabilizes the outward-facing conformation of TmrAB” (bioRxiv, 2020).

In test [1] the target is T1, TmrA C416S/L290C (chain of the double cysteine mutant of cysteine-less WT TmrAB) (Thermus thermophilus, UniProt Q72J05 1-600, C416S | L290C).
T1 construct: TmrA, Thermus thermophilus, the chain of TmrAB with the canonical Walker B motif; Cysteine-less template made by GenScript; co-expressed with the TmrB chain; also called C416S^TmrA/L290C^TmrA
T1 sequence: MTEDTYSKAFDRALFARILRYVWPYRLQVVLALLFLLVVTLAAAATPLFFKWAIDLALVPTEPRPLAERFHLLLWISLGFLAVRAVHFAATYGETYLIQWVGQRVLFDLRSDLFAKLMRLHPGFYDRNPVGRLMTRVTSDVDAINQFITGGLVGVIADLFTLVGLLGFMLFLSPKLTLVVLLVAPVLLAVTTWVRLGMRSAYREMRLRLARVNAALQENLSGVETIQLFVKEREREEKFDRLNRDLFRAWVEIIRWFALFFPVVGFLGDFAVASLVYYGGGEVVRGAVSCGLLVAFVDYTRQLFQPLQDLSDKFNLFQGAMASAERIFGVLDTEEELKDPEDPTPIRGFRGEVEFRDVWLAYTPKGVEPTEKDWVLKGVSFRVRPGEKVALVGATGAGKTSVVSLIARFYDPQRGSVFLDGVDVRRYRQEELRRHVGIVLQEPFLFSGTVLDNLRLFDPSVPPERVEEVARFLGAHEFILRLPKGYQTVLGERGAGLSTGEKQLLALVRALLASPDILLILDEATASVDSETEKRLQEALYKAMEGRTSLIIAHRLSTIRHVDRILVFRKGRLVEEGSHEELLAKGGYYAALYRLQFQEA
Briefly: cross-linking; disulfide cross-linking of engineered cysteines: 1 uM TmrAB double cysteine mutants in SEC buffer, 0.5 mM copper phenanthroline, 68°C, without or with 5 mM ATP, 10 mM MgCl2 and/or 8 mM sodium orthovanadate; SDS-PAGE, ~150 kDa band of the cross-linked dimer. Particulars: both partners purified.

Test [2] has as its target T2, TmrA G131A/C416S/L290C (chain of the double cysteine mutant of G131A^TmrA TmrAB) (Thermus thermophilus, UniProt Q72J05 1-600, G131A | C416S | L290C).
T2 construct: TmrA, Thermus thermophilus, the chain of TmrAB with the canonical Walker B motif; Cysteine-less template made by GenScript; co-expressed with TmrB V275C; also called PSM glycine mutant
T2 sequence: T1 sequence with G131A
The test is described as above. The settings on record: both partners purified.

Positions count from the first letter of the chain named. Names and notes keep the numbering of the source.

B1: TmrB G116A/V275C (chain of the double cysteine mutant of G116A^TmrB TmrAB) (natural protein, Thermus thermophilus)
chain: MTGRSAAPLLRRLWPYVGRYRWRYLWAVLAGLVSIFFFVLTPYFLRLAVDAVQAGRGFGVYALAIVASAALSGLLSYAMRRLAVVASRQVEYDLRRDLLHHLLTLDRDFYHKHRVADLMNRLNTDLSAVREMVGPGILMGSRLSFLVLLAFLSMYAVNARLAFYLTLILPGIFLAMRFLLRLIDRRYREAQEVFDRISTLAQEAFSGIRVVKGYALERRMVAWFQDLNRLYVEKSLALARVEGPLHALLGFLMGFAFLTVLWAGGAMVVRGELSCGELVQFNAYLAQLTWPILGLGWVMALYQRGLTSLRRLFELLDEKPAIRDEDPLPLALEDLSGEVRFEGVGLKRDGRWLLRGLTLTIPEGMTLGITGRTGSGKSLLAALVPRLLDPSEGRVYVGGHEARRIPLAVLRKAVGVAPQEPFLFSETILENIAFGLDEVDRERVEWAARLAGIHEEILAFPKGYETVLGERGITLSGGQRQRVALARALAKRPKILILDDALSAVDAETEARILQGLKTVLGKQTTLLISHRTAALRHADWIIVLDGGRIVEEGTHESLLQAGGLYAEMDRLQKEVEA
notes: TmrB, Thermus thermophilus, the chain of TmrAB with the non-canonical Walker B motif; Co-expressed with TmrA C416S/L290C; The cloning paragraph prints G116A^TmrA, all other places G116A^TmrB; also called PSM glycine mutant
Regarding B1, the binding result in test [1] is “binds”.

B2: TmrB V275C (chain of the double cysteine mutant of cysteine-less WT TmrAB) (natural protein, Thermus thermophilus)
chain: B1 chain with A116G
notes: TmrB, Thermus thermophilus, the chain of TmrAB with the non-canonical Walker B motif; Co-expressed with the TmrA chain; also called V275C^TmrB
In the case of B2, the binding result in test [1] and in test [2] was “binds” in each case.
